For the data set, the target named is Mcm2EE-7 S164E;S170E (Saccharomyces cerevisiae) (UniProt P29469+P24279+P30665+P29496+P53091+P38132). Kind of data set: gel filtration. A general note: In gel filtration, larger molecules generally elute earlier.

In the case of M13mp19 circular ssDNA, the binding signal (fold bound vs Mcm2WT-7 at 0.5 nM ssDNA) was above 3.

Values taken from publication PMC3167627.
